Data as given in patent US20250297018A1, “IL-18BP ANTAGONIST ANTIBODIES AND THEIR USE IN MONOTHERAPY AND COMBINATION THERAPY IN THE TREATMENT OF CANCER” (Compugen Ltd., priority 2022, published 2025).

T1: IL18-BP (Mus musculus, UniProt Q9Z0M9)
T1 sequence (Q9Z0M9 29-193): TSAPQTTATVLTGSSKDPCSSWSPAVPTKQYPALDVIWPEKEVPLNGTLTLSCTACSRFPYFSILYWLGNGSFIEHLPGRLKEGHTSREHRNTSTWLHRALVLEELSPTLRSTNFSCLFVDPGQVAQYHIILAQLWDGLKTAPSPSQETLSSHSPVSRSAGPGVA

B1: Engineered IL-18: engineered IL-18, sequence from US 20190070262A1, listed therein as mCS2 (SEQ ID NO: 61) (protein)
chain: HFGRLHCTTAVIRNINDQVLFVDKRQPVFEDMTDIDQSASEPQTRLIIYAYGDSRARGKAVTLSVKDSKMSTLSCKNKIISFEEMDPPENIDDIQSDLIFFQKRVPGHNKMEFESSLYEGHFLACQKEDDAFKLILKKKDENGDKSVMFTLTNLHQSHHHHHH
B2: BOJ-5G4-F4: Anti PVRIG mAb 407 mAb mouse IgG1 (antibody, V domains shown)
VH: QVQLQQSGAELAKPGSSVMISCKASGYTFTNYAVHWIKQTTGQALEWTGYIAPGSGVTKYNEKFKGKATLTVDKSSTTAYMQLSSLTPVDTAVYYCASGTTRFAYWGQGTLVTVSS
VL: DIVLTQSPALAVSLGQRATISCRASQSVSLSSYNLMQWYQQKPGQEPKILIYDASNLPSGIPARFSGSGSGTDFTLTIDPVQADDIATYYCQQSKDDPLTFGSGTKLEIK

Experiments:
[1] = MC38ova tumor-bearing mice treated with anti-mIL18BP or engineered mIL-18: weight, serum cytokines, spleen; assay type: in vivo, mouse
Protocol: Experiments were performed in C57Bl/6 (female, 6-8 wk, Envigo). Mice were anesthetized with 10% Ketamine and 10% Xylazine mixture injected intraperitoneal. Next, mice were inoculated with MC38ova cells (1.2×10^6) subcutaneously to the right flank in 50 μl/mice.
Spleens were harvested from mice 24 hours after the 4th treatment and weighed. For IL15 experiments, mice were treated with a single dose of 0.5 μg, 1.5 μg of IL15, or with a mix of 0.5 μg IL15 and 2.33 μg IL15R.

IL18-BP = target: T1, IL18-BP; conditions: cited from earlier work
B16/Db-hmgp100 melanoma = assay: Syngeneic B16/Db-hmgp100 mouse tumor model; assay type: in vivo; conditions: anti-PVRIG combination study, vs isotype control mAbs
Protocol: B16/Db-hmgp100 cells were kindly provided by Dr. Hanada et al. (HHS agency) and were licensed from NIH. B16/Db-hmgp100 cells were generated by double transduction of B16F10 with H-2 Db and a retrovirus that encodes chimeric mouse gp100 that is comprised of the human gp10025-33 and the rest of mouse gp100. Cells were cultured in RPMI 1640 (Biological Industries, 01-100-1A) with 10% FBS (Biological Industries, 04-127-1A), and 100 μg/mL penicillin/streptomycin (Biological Industries, 03-031-1B), 1% Glutamax (Life technologies, 35050-038, 1% Sodium pyruvate (Biological Industries, 03-042-1B), 0.01% 2-mercaptoethanol (Life technologies, 31350-010, 10 μg/ml Blasticidin (InvivoGen, ant-bl-05). 1×10^5 B16/Db-hmgp100 cells subcutaneously into the back right flank of mice. […]
At day 4 post tumor inoculation mice were treated with mAbs (as detailed below) injected on day 4, 7, 11, 14, 18 and 21 post inoculation. Tumor growth was measured with caliper every 2-3 days. […]
Two-way ANOVA with repeated measures, followed by two-way ANOVA with repeated measures for selected pairs of groups using JMP (Statistical Discoveries™) software. Analyses of tumor growth measurements were performed by comparing tumor volumes measured on the last day on which all study animals were alive. Statistical differences in percentage of mice tumor free were determined by a Log Rank Mantel-Cox test. […]

Molecule | Serum levels of IFNg, TNFa, MCP1 and IL6 ([1]; 4 hours after the 4th treatment, 0.32 mg/kg SC) | Serum levels of IL18 ([1]; 4 hours after the 4th treatment, detection identifies also engineered IL18) | Serum levels of IFNg ([1]; 24 hours after the 4th treatment) | Spleen enlargement compared to control ([1]; 24 hours after the 4th treatment, average) | Serum levels of IL18 ([1]; by 24 hours after the 4th treatment) | Binding to IL18-BP (IL18-BP) | Tumor growth (B16/Db-hmgp100 melanoma)
B1 | elevated serum levels of IFNg, TNFa, MCP1 and IL6 | very high serum levels of IL18 | elevated serum levels of IFNg | 4.9 folds | returned to baseline | shown not to bind IL18-BP | 
B2 |  |  |  |  |  |  | comparable tumor growth to mice treated with isotype control mAbs
